In patent US20170037117A1 (SALK INSTITUTE FOR BIOLOGICAL STUDIES, published 2017):
Ends that are not written are not given here.

B1: human α-CGRP fragment 1-13-COOH (peptide)
peptide: ACDTATCVTHRLA-OH
modifications: ends and bridges not checked
B2: human α-CGRP fragment 1-19-COOH (peptide)
peptide: ACDTATCVTHRLAGLLSRS-OH
modifications: ends and bridges not checked
B3: Human amylin (1-37) (peptide)
peptide: KCNTATCATQRLANFLVHSSNNFGAILSSTNVGSNTY-NH2
modifications: ends and bridges not checked
B4: Human calcitonin (1-32) (peptide)
peptide: CGNLSTCMLGTYTQDFNKFHTFPQTAIGVGAP-NH2
modifications: ends and bridges not checked
B5: Human adrenomedullin (1-52) (peptide)
peptide: YRQSMNNFQGLRSFGCRFGTCTVQKLAHQIYQFTDKDKDNVAPRSKISPQGY-NH2
modifications: ends and bridges not checked
B6: antibody G1 Fab fragment (Fab, V domains shown)
VH: EVQLVESGGGLVQPGGSLRLSCAASGFTFSNYWISWVRQAPGKGLEWVAEIRSESDASATHYAEAVKGRFTISRDNAKNSLYLQMNSLRAEDTAVYYCLAYFDYGLAIQNYWGQGTLVTVSS
VL: EIVLTQSPATLSLSPGERATLSCKASKRVTTYVSWYQQKPGQAPRLLIYGASNRYLGIPARFSGSGSGTDFTLTISSLEPEDFAVYYCSQSYNYPYTFGQGTKLEIK

Columns and labels:
antibody G1 Fab fragment = molecular target: B6; assay: Biacore competition: G1 Fab 50 nM pre-incubated 1 h with 10 uM competing peptide, flowed over N-biotinylated human α-CGRP on SA chip; blocked ligand human α-CGRP
From the text: Y axis represents percentage of binding blocked by the presence of the competing peptide compared with the binding in the absence of the competing peptide.
All these peptides are amidated at the C-terminus.

[1] = molecular target: T1, human α-CGRP fragment 26-37 (human); assay: Biacore competition, 50 nM G1 Fab + 10 uM peptide over human α-CGRP on chip
T1 peptide: NFVPTNVGSKAF-NH2
From the text: (§1) Y axis represents percentage of binding blocked by the presence of the competing peptide compared with the binding in the absence of the competing peptide. […]

[2] = molecular target: human α-CGRP fragment 19-36-COOH (human, Table 4: not C-terminally amidated (19-36-COOH); paragraph 408 says amidated at the C-terminus); assay: as above
From the text: as §1

[3] = molecular target: T2, human α-CGRP fragment 1-36-COOH (human, free C-terminus (not amidated)); assay: as above
T2 peptide: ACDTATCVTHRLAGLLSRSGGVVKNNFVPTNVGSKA
From the text: as §1

[4] = molecular target: B2; assay: as above
From the text: as §1

[5] = molecular target: B1; assay: as above
From the text: as §1

Human calcitonin (1-32) = molecular target: B4; assay: as above
From the text: as §1

Human amylin (1-37) = molecular target: B3; assay: as above
From the text: as §1

[6] = molecular target: B5; assay: as above
From the text: as §1

human α-CGRP 1-37 (WT) = molecular target: T3, human α-CGRP 1-37 (WT) (human, not fully specified; C-terminal amide; N-terminal biotin when captured on the chip; 125I label in the radioligand assay); assay: as above
T3 construct: also called α-human
T3 peptide: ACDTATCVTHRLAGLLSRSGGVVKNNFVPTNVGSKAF
From the text: as §1

rat α-CGRP (1-37) = molecular target: T4, rat α-CGRP (1-37) (rat, not fully specified; C-terminal amide; N-terminal biotin when captured on the chip); assay: as above
T4 construct: also called rat α (1-37); α-rat
T4 peptide: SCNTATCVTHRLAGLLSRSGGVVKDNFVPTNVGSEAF
From the text: as §1

human β-CGRP (1-37) = molecular target: T5, human β-CGRP (1-37) (human, not fully specified; C-terminal amide; N-terminal biotin when captured on the chip); assay: as above
T5 construct: also called human β (1-37); β-CGRP (WT)
T5 peptide: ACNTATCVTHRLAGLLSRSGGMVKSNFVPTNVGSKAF
From the text: as §1

rat β-CGRP (1-37) = molecular target: T6, rat β-CGRP (1-37) (rat, not fully specified; C-terminal amide; N-terminal biotin when captured on the chip); assay: as above
T6 construct: also called rat β (1-37)
T6 peptide: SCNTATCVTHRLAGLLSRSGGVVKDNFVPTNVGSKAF
From the text: as §1

[7] = molecular target: T7, human α-CGRP fragment 8-37 (human, C-terminal amide); assay: as above
T7 peptide: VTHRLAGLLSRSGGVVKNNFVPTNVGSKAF
From the text: as §1

[8] = molecular target: T8, human α-CGRP P29A (19-37) (human); assay: as above
T8 construct: the entry already carries the mutation
T8 peptide: SGGVVKNNFVATNVGSKAF-NH2
From the text: as §1

[9] = molecular target: T9, human α-CGRP K35A (19-37) (human, not fully specified); assay: as above
T9 construct: the entry already carries the mutation
T9 peptide: SGGVVKNNFVPTNVGSAAF-NH2
From the text: as §1

[10] = molecular target: T10, human α-CGRP K35E (19-37) (human, not fully specified); assay: as above
T10 construct: the entry already carries the mutation
T10 peptide: SGGVVKNNFVPTNVGSEAF-NH2
From the text: as §1

[11] = molecular target: T11, human α-CGRP K35M (19-37) (human, not fully specified); assay: as above
T11 construct: the entry already carries the mutation
T11 peptide: SGGVVKNNFVPTNVGSMAF-NH2
From the text: as §1

In the case of B1, the “% Binding blocked” value (antibody G1 Fab fragment) is reported as 0%.

In the case of B2, the “% Binding blocked” value (antibody G1 Fab fragment) is reported as 0%.

For B3, the “% Binding blocked” value (antibody G1 Fab fragment) was 0%.

B4 was tested, and the “% Binding blocked” value (antibody G1 Fab fragment) was 0%.

B5 was tested, and the “% Binding blocked” value (antibody G1 Fab fragment) was 0%.

In the case of B6, the “percentage of binding blocked” value [1] is reported as 100%, the binding result [2] is reported as “no binding (tested: 10 uM peptide)” and the “percentage of binding blocked” value [3] is reported as about 40%. B6: no binding (tested: 10 uM peptide) [4]; no binding (tested: 10 uM peptide) [5]; no binding (tested: 10 uM peptide) (Human calcitonin (1-32)). The binding result (Human amylin (1-37)) was “no binding (tested: 10 uM peptide)”, the binding result [6] was “no binding (tested: 10 uM peptide)” and the “percentage of binding blocked” value (human α-CGRP 1-37 (WT)) was 100%. The “percentage of binding blocked” value (rat α-CGRP (1-37)) was 100%, the “percentage of binding blocked” value (human β-CGRP (1-37)) was 100% and the “percentage of binding blocked” value (rat β-CGRP (1-37)) was 100%. For the same binder, the “percentage of binding blocked” value [7] was 100%, the “percentage of binding blocked” value [8] was 100% and the “percentage of binding blocked” value [9] was 100%. The “percentage of binding blocked” value [10] was 100% and the “percentage of binding blocked” value [11] was 100%.
